B1: Differentially expressed in FDCP 6 (Mus musculus), Q8C2K1 (parent)
chain: MALRKELLKSIWYAFTALDVEKSGKVSKSQLKVLSHNLYTVLNIPHDPVALEEHFRDDDDGPVSSQGYMPYLNKYILDKVEEGAFVKEHFDELCWTLTAKKNYRADGIGSSPLSNQDAFRLWCLFNFLSEDKYPLIMVPDEVEYLLKKLLGSLSLEMGLGELEELLAQDAQSAQTAVGLSVWQFLELFNSGRCLRGVGRDSLSMAIQEVYQELIQDVLKQGYLWKRGHLRRNWAERWFQLQPSSLCYFGSEECKEKRGTIPLDAHCCVEVLPDREGKRCMFCVKTASRTYEMSASDTRQRQEWTAAIQTAIRLQAEGKTSLHKDLKQKRREQREQRERRRAAKEEELLRLQQLQEEKERKLQELELLQEAQRQAERLLQEEEERRRSQHKELQQALEGQLREAEQARASMQAEMELKKEEAARQRQRIAELEEMQERLQEALQLEVKARRDEEAVRLAQTRLLEEEEEKLKQLMHLKEEQERYIERAQQEKQELQQEMALQSRSLQHAQQQLEEVRQNRQRADEDVEAAQRKLRQASTNVKHWNVQMNRLMHPIEPGDKRPTTSSSFTGFQPPPLARRDSSLKRLTRWGSQGNRTLSVNSSEQKSLNGGDETPILALASQEEKLDPAPGN
partner: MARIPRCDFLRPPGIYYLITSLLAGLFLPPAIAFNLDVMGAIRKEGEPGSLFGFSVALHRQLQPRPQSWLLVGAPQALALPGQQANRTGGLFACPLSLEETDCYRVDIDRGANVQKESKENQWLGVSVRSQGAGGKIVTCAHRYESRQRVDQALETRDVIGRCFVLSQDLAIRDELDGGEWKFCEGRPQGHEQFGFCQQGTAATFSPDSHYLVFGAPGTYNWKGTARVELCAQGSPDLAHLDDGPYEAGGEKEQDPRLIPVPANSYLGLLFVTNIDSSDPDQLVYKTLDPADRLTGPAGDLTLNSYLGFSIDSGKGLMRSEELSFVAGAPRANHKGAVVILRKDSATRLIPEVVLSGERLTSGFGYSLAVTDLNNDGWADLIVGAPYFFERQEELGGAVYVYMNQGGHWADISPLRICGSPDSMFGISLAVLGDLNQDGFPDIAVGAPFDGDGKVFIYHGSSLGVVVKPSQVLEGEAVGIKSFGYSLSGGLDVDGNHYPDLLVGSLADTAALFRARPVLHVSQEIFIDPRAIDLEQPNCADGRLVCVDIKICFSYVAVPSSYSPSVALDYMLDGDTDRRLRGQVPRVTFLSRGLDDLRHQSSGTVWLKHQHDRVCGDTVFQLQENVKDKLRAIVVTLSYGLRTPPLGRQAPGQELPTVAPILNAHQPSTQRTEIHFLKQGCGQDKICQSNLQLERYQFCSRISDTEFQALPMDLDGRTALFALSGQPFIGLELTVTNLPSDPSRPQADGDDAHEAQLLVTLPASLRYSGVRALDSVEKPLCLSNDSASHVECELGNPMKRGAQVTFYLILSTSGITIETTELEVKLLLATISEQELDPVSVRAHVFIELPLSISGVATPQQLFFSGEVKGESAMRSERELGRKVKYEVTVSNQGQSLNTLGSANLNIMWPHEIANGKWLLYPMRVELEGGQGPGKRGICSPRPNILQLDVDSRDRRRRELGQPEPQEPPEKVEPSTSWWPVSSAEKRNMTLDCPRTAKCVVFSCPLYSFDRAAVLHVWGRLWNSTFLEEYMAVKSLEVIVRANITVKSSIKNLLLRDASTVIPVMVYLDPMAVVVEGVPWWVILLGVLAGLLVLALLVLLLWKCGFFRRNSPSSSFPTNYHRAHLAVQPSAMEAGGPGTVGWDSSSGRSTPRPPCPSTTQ

Variants of: B1
Settings: with Itga7, Q61738-6

Row | effect of a mutation on the interaction | Variant
1 | decreasing interaction | Y210E
